Experimental findings from publication PMC12220977 (2025) are described below.

For assay [1], the target named is PAI-1WT (wild-type plasminogen activator inhibitor 1, recombinant) (UniProt P05121). Nature of the assay: SPR; competition: 250 nM PAI-1WT preincubated with increasing concentrations of SMB, then flowed over immobilised full-length SorLA; HBS-P buffer with 1.0 mM CaCl2, pH 7.4, 25°C.
In assay [2] the target is T1, SorLA VPS10 domain (vacuolar protein sorting 10 domain).
T1 chain: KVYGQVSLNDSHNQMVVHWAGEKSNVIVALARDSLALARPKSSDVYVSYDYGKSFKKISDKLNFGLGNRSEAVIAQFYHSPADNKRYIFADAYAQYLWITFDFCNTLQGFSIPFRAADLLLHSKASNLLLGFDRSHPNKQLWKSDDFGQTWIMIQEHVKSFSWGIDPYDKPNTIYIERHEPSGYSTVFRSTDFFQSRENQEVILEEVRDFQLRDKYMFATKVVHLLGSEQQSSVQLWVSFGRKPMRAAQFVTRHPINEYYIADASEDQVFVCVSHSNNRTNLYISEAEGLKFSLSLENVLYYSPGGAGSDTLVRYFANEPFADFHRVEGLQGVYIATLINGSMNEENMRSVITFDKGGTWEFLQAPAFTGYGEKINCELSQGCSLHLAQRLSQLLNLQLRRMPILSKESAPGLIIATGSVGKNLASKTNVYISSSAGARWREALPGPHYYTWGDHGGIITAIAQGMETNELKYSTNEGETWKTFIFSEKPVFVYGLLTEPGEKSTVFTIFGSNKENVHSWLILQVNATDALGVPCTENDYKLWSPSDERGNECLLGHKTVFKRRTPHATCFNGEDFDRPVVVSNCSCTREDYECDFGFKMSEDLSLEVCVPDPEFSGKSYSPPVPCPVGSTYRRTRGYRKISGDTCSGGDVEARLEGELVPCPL
Description: SPR. For orientation: SPR reads the build-up and loss of mass on a sensor chip optically.

The target in assay [3] is T2, Soluble full-length SorLA (sortilin-related receptor 1) (UniProt Q92673 82-2137). Description: SPR.
The target in assay [4] is T2, Soluble full-length SorLA …. Description: SPR; SorLA or its VPS10 domain immobilised on a CM5 chip (5,000 and 2,500 RU); PAI-1 flowed over; HBS-P buffer with 1.0 mM CaCl2, pH 7.4, 25°C, 20 uL/min; equilibrium analysis (Req/Rmax), single binding site.

Where a chain is given by its changes, count along the chain named.

Broadly, the IC50 is the concentration that inhibits the measured activity by half. As to “Somatomedin B (SMB) domain of vitronectin (VTN) (from UniProt P04004 20-63) (domain or fragment)”, the IC50 in assay [1] stood at 464 nM.

B1: PAI-1WT (wild-type plasminogen activator inhibitor 1, recombinant) (natural protein)
chain: VHHPPSYVAHLASDFGVRVFQQVAQASKDRNVVFSPYGVASVLAMLQLTTGGETQQQIQAAMGFKIDDKGMAPALRHLYKELMGPWNKDEISTTDAIFVQRDLKLVQGFMPHFFRLFRSTVKQVDFSEVERARFIINDWVKTHTKGMISHLLGTGAVDQLTRLVLVNALYFNGQWKTPFPDSSTHRRLFHKSDGSTVSVPMMAQTNKFNYTEFTTPDGHYYDILELPYHGDTLSMFIAAPYEKEVPLSALTNILSAQLISHWKGNMTRLPRLLVLPKFSLETEVDLRKPLENLGMTDMFRQFQADFTSLSDQEPLHVALALQKVKIEVNESGTVASSSTAVIVSARMAPEEIIIDRPFLFVVRHNPTGTVLFMGQVMEP
As usually defined, the Kd is the free concentration of one partner at which half of the binding sites on the other are occupied at equilibrium, for simple one-to-one binding. For B1, the Kd in assay [2] was found to be 1590 nM; in assay [3], 102 nM; in assay [4], 126 nM.

B2: PAI-1AK (PAI-1 Arg101Ala, Gln123Lys) (natural protein)
chain: B1 chain with R101A, Q123K
Regarding B2, the Kd in assay [3] was 491 nM; in assay [4], 540 nM.
